{"source": "paper PMC4931251", "about": "“Characterization of the targeting signal in mitochondrial β-barrel proteins” (Nature Communications, 2016)", "target": "T1, cytosolic receptor domain of rat Tom20 (dTom20), uniformly 15N-labelled (Rattus norvegicus, UniProt Q62760 51-145, uniformly [15N]-labelled)", "T1 construct": "Tom20 from Rattus norvegicus, cytosolic receptor domain, residues 51-145; Cloned into pET-22b without the stop codon; also called [15N]-dTom20; rat dTom20; source: E. coli BL21(DE3), purified (Ni-NTA, gel filtration on Superdex 200)", "T1 sequence (looked up)": "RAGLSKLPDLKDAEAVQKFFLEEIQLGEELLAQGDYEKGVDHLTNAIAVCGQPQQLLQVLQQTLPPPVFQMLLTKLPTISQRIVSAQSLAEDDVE", "experiment": "NMR titration; [1H,15N]-HSQC of 210 μM [15N]-dTom20 in 20 mM KPi pH 6.4, 50 mM KCl, 5% DMSO; aliquots of 10 mM unlabelled cyclic peptide in DMSO added (two molar excess); DMSO effect subtracted", "conditions": "both partners purified"}
{"binder": "LTLSALLDGKNVNAGGHKLGLGLPP (head-to-tail cyclised: the new C terminus (after the two added Pro) covalently linked to the N terminus, human voltage-dependent anion channel 1 (hVDAC1), last two β-strands and the loop between them, a.a; L257 to L279; residue numbers correspond to full-length hVDAC1; two Pro residues added to the C terminus (told in words); Measured mass [M+H]+ = 2,436.48; also called cyclic peptide; source: synthetic peptide (Fmoc/tBu chemistry, cyclised, purified by RP-HPLC))", "note": "[cyclic β-hairpin peptide derived from human voltage-dependent anion channel 1 (hVDAC1)]", "values": [{"measurement": "binding result", "result": "binds"}]}
